Measured values reported in publication PMC8632923.

What was measured:
Details in all cases: reference: wild type; sites Y38
Drp1 [1] = target: Drp1 (UniProt O00429); experiment: co-IP, immunoblot
Drp1 [2] = target: Drp1 (UniProt O00429); experiment: anti-Flag IP of Fis1-Flag, Drp1 blot
Drp1 [3] = target: Drp1 (UniProt O00429); experiment: Flag-bead Fis1 pull-down of recombinant Drp1

Measured: binding against the reference

Fis1 (from UniProt Q9Y3D6) Y38F
weaker: all assays above
